# Test results reported in IntAct's records for PubMed 28712572.
# Target: gbrap_human GABARAP (UniProt O95166)
# Sequence (O95166 whole entry): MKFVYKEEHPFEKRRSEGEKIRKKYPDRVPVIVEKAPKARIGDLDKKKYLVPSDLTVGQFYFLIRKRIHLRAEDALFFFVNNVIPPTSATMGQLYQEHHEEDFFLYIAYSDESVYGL
row,Substance,effect of a mutation on the interaction
1,"Pericentriolar material 1 protein (Homo sapiens), Q15154 Q1956G",with no effect
2,"Pericentriolar material 1 protein (Homo sapiens), Q15154 Q1956H",with no effect
3,"Pericentriolar material 1 protein (Homo sapiens), Q15154 Q1956I",with no effect
4,"Pericentriolar material 1 protein (Homo sapiens), Q15154 Q1956K",with no effect
5,"Pericentriolar material 1 protein (Homo sapiens), Q15154 Q1956L",with no effect
6,"Pericentriolar material 1 protein (Homo sapiens), Q15154 Q1956M",with no effect
7,"Pericentriolar material 1 protein (Homo sapiens), Q15154 Q1956N",with no effect
8,"Pericentriolar material 1 protein (Homo sapiens), Q15154 Q1956P",with no effect
9,"Pericentriolar material 1 protein (Homo sapiens), Q15154 Q1956R",with no effect
10,"Pericentriolar material 1 protein (Homo sapiens), Q15154 Q1956S",with no effect
11,"Pericentriolar material 1 protein (Homo sapiens), Q15154 Q1956T",with no effect
12,"Pericentriolar material 1 protein (Homo sapiens), Q15154 Q1956V",with no effect
13,"Pericentriolar material 1 protein (Homo sapiens), Q15154 Q1956W",with no effect
14,"Pericentriolar material 1 protein (Homo sapiens), Q15154 Q1956Y",with no effect
15,"Pericentriolar material 1 protein (Homo sapiens), Q15154 S1955A",with no effect
16,"Pericentriolar material 1 protein (Homo sapiens), Q15154 S1955C",with no effect
17,"Pericentriolar material 1 protein (Homo sapiens), Q15154 S1955D",with no effect
18,"Pericentriolar material 1 protein (Homo sapiens), Q15154 S1955E",with no effect
19,"Pericentriolar material 1 protein (Homo sapiens), Q15154 S1955F",with no effect
20,"Pericentriolar material 1 protein (Homo sapiens), Q15154 S1955G",with no effect
21,"Pericentriolar material 1 protein (Homo sapiens), Q15154 S1955H",with no effect
22,"Pericentriolar material 1 protein (Homo sapiens), Q15154 S1955I",with no effect
23,"Pericentriolar material 1 protein (Homo sapiens), Q15154 S1955K",with no effect

row,Substance,effect of a mutation on the interaction
1,"Pericentriolar material 1 protein (Homo sapiens), Q15154 S1955L",with no effect
2,"Pericentriolar material 1 protein (Homo sapiens), Q15154 S1955M",with no effect
3,"Pericentriolar material 1 protein (Homo sapiens), Q15154 S1955N",with no effect
4,"Pericentriolar material 1 protein (Homo sapiens), Q15154 S1955P",with no effect
5,"Pericentriolar material 1 protein (Homo sapiens), Q15154 S1955Q",with no effect
6,"Pericentriolar material 1 protein (Homo sapiens), Q15154 S1955R",with no effect
7,"Pericentriolar material 1 protein (Homo sapiens), Q15154 S1955T",with no effect
8,"Pericentriolar material 1 protein (Homo sapiens), Q15154 S1955V",decreasing interaction strength
9,"Pericentriolar material 1 protein (Homo sapiens), Q15154 S1955W",with no effect
10,"Pericentriolar material 1 protein (Homo sapiens), Q15154 S1955Y",with no effect
11,"Pericentriolar material 1 protein (Homo sapiens), Q15154 S1958A",with no effect
12,"Pericentriolar material 1 protein (Homo sapiens), Q15154 S1958C",with no effect
13,"Pericentriolar material 1 protein (Homo sapiens), Q15154 S1958D",with no effect
14,"Pericentriolar material 1 protein (Homo sapiens), Q15154 S1958E",with no effect
15,"Pericentriolar material 1 protein (Homo sapiens), Q15154 S1958F",with no effect
16,"Pericentriolar material 1 protein (Homo sapiens), Q15154 S1958G",with no effect
17,"Pericentriolar material 1 protein (Homo sapiens), Q15154 S1958H",with no effect
18,"Pericentriolar material 1 protein (Homo sapiens), Q15154 S1958I",with no effect
19,"Pericentriolar material 1 protein (Homo sapiens), Q15154 S1958K",with no effect
20,"Pericentriolar material 1 protein (Homo sapiens), Q15154 S1958L",with no effect
21,"Pericentriolar material 1 protein (Homo sapiens), Q15154 S1958M",with no effect
22,"Pericentriolar material 1 protein (Homo sapiens), Q15154 S1958N",with no effect
23,"Pericentriolar material 1 protein (Homo sapiens), Q15154 S1958P",with no effect
